In patent US20180371087A1 (published 2018):
Substitutions are numbered along the chain they refer to. In names and notes the source's numbering stands. Blank lines part the entries; values can stand above or below the binder they belong to.

Key:
[1] = molecular target: T1, human LAG-3 (Lymphocyte Activation Gene-3), native or transduced, on the cell surface (UniProt P18627 23-525); assay: FACS binding; activated human CD4+ T cells
T1 chain: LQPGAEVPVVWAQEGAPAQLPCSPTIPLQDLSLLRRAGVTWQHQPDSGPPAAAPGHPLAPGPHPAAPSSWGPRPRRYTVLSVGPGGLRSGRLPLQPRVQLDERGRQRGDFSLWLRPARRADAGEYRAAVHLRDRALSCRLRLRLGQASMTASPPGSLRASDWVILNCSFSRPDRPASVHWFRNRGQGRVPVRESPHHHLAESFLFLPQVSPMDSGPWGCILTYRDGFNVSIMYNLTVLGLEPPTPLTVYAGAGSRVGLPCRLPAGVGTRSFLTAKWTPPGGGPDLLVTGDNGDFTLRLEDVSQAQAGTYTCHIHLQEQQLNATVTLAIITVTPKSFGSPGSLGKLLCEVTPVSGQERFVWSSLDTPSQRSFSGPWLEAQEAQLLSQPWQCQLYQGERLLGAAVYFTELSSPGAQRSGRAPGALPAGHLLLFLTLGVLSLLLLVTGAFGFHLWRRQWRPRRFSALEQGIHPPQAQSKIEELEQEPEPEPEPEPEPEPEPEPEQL

D1D4 construct = assay: SPR (Biacore)

EC50 [1]: 0.33 nM
B1: LAG3.7-G4P (antibody, V domains shown)
VH: QVQLQQWGAGLLKPSETLSLTCAVYGGSFSDYYWNWIRQPPGKGLEWIGEINHGGGTNSNPSLKSRVTLSLDTSKNQFSLKLRSVTAADTAVYYCAFGYSDYEYNWFDPWGQGTLVTVSS
VL: EIVLTQSPATLSLSPGERATLSCRASQSISSYLAWYQQKPGQAPRLLIYDASNRATGIPARFSGSGSGTDFTLTISSLEPEDFAVYYCQQRSNWPLTFGQGTNLEIK

Kd (D1D4 construct): 0.3 nM
B2: LAG3.8 (antibody, V domains shown)
VH: B1 VH with G54I, G56N
VL: EIVLTQSPATLSLSPGERATLSCRASQSISSYLAWYQQKPGQAPRLLIYDASNRATGIPARFSGSGSGTDFTLTISSLEPEDFAVYYCQQRSNWPLTFGQGTNLEIKR

EC50 [1]: 0.19 nM
B3: LAG3.8 antibody variant of LAG3.1 (antibody, V domains shown)
VH: B1 VH with G54I, G56N
VL: B2 VL
